Test results: publication PMC9670971
“And” between values parts separate entries of the source, which are not always exact repeats. Equal values may be shown once.

Biological target: Recombinant Mip (25 kDa) (L. pneumophila) (UniProt Q5ZXE0)
Experiment: co-IP

Substance | antibody signal from Western blot (ImageJ) (relative units) | band intensity in Coomassie stained gel (ImageJ) (relative units) | band intensity at 15 kDa in Coomassie stained gel (ImageJ) (relative units)
Flagellin FlaA (LPC_0756), native (natural protein) | 4380 and 4310 | 5680 and 5740 | 
Lpc2061-6xHis-Tag (natural protein) | 4690 and 4520 | 1900 and 795 | 4600 and 7390
SspB-Strep-TagII (natural protein) | 5030 and 5180 | 4300 and 4240 | 
